Assay results from paper PMC10267678, “Proteomic Profiling of Extracellular Matrix Components from Patient Metastases Identifies Consistently Elevated Proteins for Developing Nanobodies That Target Primary Tumors and Metastases” (Cancer Research, 2023).

B1: NJT3 (VHH)
VHH: QVQLVETGGGLAQAGGSLRLSCAASGRTLSGYAMGWFRQAPGKEREFVAAISWSGRNTYYDYTVQGRFTISKDNAKNTVNLQMNSLKPEDTAVYYCAVSRSLDEFGDGYEMDYWGDGTQVTVSS
notes: The label differs between experiments (biotin, Alexa-647); also called anti-TNC nanobody NJT3; 64Cu-NJT3; source: selected from alpaca phage-display library B; expressed and purified by methods previously described; not shown: sortase tag, C-terminal, kept
B2: NJT6 (VHH)
VHH: QVQLVETGGDLVQPGGSLRLSCAASGLTLDYYAIGWVRQAPGKEREGVSCITPQDGNTYYDDSVMGRFTILRDNAKNMVYLQMNNLKPEDTAVYFCAAAGALTLDPSEYEYWGQGTQVTVSS
notes: The label differs between experiments (biotin, Alexa-647); also called anti-TNC nanobody NJT6; 64Cu-NJT6; source: selected from alpaca phage-display library B; expressed and purified by methods previously described; not shown: sortase tag, C-terminal, kept
B3: NJT4 (VHH)
VHH: QVQLVESGGGLVQPGGSLRLSCAASGFTFSSYTMRWYRQAPGKERELVAFIGVAGGSTKYADSVKGRFTISRDNTKNTVYLQMNTLKPEDTAVYYCYAPLTPYWGQGTQVTVSS
notes: The label differs between experiments (biotin, Alexa-647); also called anti-TNC nanobody NJT4; 64Cu-NJT4; source: selected from alpaca phage-display library B; expressed and purified by methods previously described; not shown: sortase tag, C-terminal, kept

Experiments:
[1] = molecular target: T1, full-length human TNC protein (Homo sapiens, UniProt P24821); test: far-Western, overlay or dot blot; immunoblot of human TNC protein probed with the nanobodies; conditions: both partners purified
T1 construct: tenascin-C, human, full-length recombinant protein (Sigma); also called human tenascin-C; hTNC; source: bought: Sigma-Aldrich (purified, recombinant)

[2] = molecular target: T2, mouse TNC on tissue sections of lung metastases derived from murine TNBC cell line 4T1 (Mus musculus (4T1 metastases in BALB/c), UniProt Q80YX1); test: immunostaining of cells or tissue; IHC with the nanobodies on tissue sections of lung metastases (LM2 in NSG mice; 4T1 in BALB/c mice); conditions: one partner purified
T2 construct: tenascin-C, mouse, endogenous in 4T1 lung metastases; source: endogenous, 4T1 lung metastases in BALB/c mice, tissue sections

[3] = molecular target: T3, human TNC in the ECM of tumors and lung metastases derived from human TNBC cell line LM2 (Homo sapiens (LM2 cells), UniProt P24821); test: two-photon microscopy of resected organs after intravenous injection of labelled nanobody; Alexa-647 labelled nanobodies injected via the tail vein into NSG mice with LM2-TGL-ZsGreen tumors; organs resected 2 hours after injection and imaged; conditions: one partner purified
T3 construct: tenascin-C, human, made by LM2 human TNBC cells in xenografts; also called hTNC; TNC fibrils; source: endogenous, ECM of LM2 (LM2-TGL-ZsGreen) tumors and lung metastases in NSG mice
T3 sequence (P24821 23-2201): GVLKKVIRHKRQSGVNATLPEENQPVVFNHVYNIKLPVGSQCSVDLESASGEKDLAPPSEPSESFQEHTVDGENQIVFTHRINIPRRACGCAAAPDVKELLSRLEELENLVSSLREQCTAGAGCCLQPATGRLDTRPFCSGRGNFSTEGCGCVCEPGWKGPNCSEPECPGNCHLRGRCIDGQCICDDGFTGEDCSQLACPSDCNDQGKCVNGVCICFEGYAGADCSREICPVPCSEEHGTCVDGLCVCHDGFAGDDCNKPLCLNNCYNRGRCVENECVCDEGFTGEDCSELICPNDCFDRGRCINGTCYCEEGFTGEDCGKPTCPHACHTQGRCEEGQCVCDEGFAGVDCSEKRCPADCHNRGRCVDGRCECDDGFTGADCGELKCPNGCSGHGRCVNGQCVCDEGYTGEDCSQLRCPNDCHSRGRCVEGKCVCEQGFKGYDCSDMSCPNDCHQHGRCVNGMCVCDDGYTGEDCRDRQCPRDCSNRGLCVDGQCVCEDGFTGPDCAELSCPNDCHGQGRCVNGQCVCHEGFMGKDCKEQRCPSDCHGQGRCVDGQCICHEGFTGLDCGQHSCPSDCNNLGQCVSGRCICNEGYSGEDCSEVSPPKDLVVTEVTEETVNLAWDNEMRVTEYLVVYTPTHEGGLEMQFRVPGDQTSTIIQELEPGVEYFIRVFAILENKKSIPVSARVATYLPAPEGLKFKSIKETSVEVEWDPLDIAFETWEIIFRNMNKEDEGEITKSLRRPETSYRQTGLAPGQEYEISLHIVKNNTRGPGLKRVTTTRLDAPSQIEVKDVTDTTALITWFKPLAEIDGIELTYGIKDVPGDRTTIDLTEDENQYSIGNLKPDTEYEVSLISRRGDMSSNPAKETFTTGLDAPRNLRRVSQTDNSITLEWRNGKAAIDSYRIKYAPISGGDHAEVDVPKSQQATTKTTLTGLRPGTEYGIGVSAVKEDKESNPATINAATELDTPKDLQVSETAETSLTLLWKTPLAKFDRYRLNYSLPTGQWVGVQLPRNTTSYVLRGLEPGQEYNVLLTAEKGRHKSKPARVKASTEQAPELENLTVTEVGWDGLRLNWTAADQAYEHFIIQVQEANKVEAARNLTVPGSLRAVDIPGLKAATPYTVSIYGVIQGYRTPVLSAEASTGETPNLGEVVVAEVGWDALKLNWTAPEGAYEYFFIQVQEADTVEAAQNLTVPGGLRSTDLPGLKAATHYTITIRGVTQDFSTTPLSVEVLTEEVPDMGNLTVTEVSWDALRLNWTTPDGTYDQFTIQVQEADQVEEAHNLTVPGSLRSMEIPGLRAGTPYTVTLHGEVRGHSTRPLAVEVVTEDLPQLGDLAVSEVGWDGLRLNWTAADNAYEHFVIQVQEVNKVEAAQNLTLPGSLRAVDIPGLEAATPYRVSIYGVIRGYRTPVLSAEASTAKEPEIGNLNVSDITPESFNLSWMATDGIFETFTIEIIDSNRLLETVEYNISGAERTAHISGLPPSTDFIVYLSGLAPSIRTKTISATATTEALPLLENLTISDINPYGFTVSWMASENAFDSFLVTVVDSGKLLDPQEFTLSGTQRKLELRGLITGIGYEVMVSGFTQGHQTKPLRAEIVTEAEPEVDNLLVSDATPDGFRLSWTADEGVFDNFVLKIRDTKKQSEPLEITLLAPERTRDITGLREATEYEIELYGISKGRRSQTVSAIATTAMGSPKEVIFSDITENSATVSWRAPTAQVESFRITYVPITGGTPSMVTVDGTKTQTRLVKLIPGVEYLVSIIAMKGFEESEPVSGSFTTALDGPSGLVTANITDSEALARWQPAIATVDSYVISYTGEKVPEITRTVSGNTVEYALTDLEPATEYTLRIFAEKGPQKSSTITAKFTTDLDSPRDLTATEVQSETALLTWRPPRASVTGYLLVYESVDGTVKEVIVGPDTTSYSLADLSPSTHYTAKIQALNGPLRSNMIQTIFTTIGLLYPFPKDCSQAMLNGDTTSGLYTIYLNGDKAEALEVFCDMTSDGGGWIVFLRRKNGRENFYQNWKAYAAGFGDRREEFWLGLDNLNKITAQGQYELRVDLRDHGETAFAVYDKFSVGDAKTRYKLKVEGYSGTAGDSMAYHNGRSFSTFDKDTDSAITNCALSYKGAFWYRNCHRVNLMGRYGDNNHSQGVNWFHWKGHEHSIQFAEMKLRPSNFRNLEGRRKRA

T2 sequence (Q80YX1 23-2110): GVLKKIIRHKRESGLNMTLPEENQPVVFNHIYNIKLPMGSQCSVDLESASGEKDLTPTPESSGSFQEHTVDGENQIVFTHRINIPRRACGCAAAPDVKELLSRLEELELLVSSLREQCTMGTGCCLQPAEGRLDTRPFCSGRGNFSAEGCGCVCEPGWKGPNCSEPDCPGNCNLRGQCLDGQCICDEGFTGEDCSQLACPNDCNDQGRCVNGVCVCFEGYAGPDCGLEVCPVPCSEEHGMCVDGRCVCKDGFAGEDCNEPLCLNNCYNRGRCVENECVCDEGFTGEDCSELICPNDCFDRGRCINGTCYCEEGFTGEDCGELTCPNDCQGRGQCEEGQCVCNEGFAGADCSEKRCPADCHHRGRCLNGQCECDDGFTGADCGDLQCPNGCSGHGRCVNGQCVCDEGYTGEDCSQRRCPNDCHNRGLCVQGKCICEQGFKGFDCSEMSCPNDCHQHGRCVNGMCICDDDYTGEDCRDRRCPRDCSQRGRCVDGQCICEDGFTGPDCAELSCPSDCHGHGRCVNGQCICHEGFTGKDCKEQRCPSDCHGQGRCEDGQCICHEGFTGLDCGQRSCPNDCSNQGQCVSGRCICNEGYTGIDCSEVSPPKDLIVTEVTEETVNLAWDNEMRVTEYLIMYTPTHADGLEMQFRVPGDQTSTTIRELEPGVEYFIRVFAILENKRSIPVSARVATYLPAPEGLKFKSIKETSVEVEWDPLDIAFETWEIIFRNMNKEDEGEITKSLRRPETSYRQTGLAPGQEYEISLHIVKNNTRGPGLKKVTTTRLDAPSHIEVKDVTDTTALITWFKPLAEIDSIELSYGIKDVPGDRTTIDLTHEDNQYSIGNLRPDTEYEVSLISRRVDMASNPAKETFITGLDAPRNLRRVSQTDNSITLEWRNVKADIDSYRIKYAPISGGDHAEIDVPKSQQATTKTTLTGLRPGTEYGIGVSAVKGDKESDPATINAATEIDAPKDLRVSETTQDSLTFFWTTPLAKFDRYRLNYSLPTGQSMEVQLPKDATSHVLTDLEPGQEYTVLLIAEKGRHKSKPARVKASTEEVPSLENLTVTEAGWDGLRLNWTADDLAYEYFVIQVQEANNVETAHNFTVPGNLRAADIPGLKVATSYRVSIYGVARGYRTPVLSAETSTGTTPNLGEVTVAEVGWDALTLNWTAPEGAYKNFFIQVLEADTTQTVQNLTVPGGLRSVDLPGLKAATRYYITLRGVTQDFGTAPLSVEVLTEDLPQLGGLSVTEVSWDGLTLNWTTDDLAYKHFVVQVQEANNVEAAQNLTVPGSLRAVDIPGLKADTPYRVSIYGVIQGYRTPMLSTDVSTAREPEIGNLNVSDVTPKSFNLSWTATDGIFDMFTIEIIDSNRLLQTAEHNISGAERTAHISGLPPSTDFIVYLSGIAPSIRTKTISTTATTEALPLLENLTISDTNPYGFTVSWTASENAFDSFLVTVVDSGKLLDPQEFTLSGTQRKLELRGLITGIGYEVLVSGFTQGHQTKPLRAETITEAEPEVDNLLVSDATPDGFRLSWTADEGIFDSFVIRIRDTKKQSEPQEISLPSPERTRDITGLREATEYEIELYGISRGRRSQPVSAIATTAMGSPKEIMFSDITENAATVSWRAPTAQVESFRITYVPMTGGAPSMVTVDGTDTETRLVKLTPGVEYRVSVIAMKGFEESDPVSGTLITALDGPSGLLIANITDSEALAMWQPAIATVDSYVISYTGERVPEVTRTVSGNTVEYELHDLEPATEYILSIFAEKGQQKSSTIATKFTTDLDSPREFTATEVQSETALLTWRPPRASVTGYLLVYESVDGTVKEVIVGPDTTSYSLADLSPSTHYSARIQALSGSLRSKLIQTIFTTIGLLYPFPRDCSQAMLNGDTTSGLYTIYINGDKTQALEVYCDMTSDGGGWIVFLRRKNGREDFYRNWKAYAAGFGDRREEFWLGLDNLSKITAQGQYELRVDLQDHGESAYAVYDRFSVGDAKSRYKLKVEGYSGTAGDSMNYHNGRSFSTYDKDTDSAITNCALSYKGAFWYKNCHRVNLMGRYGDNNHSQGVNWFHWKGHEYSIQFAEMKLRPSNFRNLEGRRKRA
T1 sequence (P24821 23-2201): as the sequence (P24821 23-2201) above

Binder	binding result [1]	binding result [2]	binding result [3]
B1	binds	no binding	binds
B2	binds	no binding	binds
B3	binds	no binding	binds
